Data published in a protein production outcome set (Wang et al. 2014).

Assay: label from the status in PepcDB records

Sequence	protein production
VGFAPELYCGLENCYDVLEVNREEFDKQKLAKAYRALARKHHPDRVKNKEEKLLAEERFRVIATAYETLKDDEAKTNYDYYLDHPDQRFYNYYQYYRLRAAPKVDL	not failed
VGKPKMDVDLLQVDADLKKEIFDAYYNTMKTAVMTEEKLAREVEIDKVKDTVKEVYAEKFSEHEEEAQLLKEVKQIAEDLEKDVVRELITIDKIRPDGRKLDEIRH	not failed
VIGTWDCDTCLVQNKPEAIKCVACETPKPGTCVKRALTLT	not failed
VKRAVQKTSDLIVLGLPWKTTEQDLKEYFSTFGEVLMVQVKKDLKTGHSKGFGFVRFTEYETQVKVMSQRHMIDGRWCDCKLPNSKQSQD	not failed
VLIIPGGGYRRIVYEREGLDVGRWIAGQGYTAFILSYRMPSVNGYYSFADAKNALNFISYWAGMSERTFKSVGCMGFSAGGHLAGYITHLHYEEETSVRPDWMALIYPVISLDRSIAHQGCRKRLLDAGESEYSASLENSVTEYMPPVFIVHATDDKDVPVIHSLRYFNSIRDKGHHAEAHFFDKGGHGFGVSGKNGYPIEKWQSLLLEWLAEH	failed
VMRLVTLRSHDQYNTTIYAMDDRYRGVFGRRDVLFMNEQDMAAQGLEHGDRVDIHTALPGSALTLEDITVVAYGIAPGTVGAYYPEANVLVPLNYLDEESGTPSYKSVPVRLTLRSKEIRPLVGGR	not failed
VNPLLDSLQPYPFEKLRALFKDVTPNAGLAHISFGIGEPKHPTPALIRDAVVASLGGLSAYPATSGSPALRESIAKWVTQRYNLPPVDPATQVLPVSGSREALFSLAQTVLDPQKNAGGEPAIVLCPNPFYQIYEGAAILAGAQPYFVNSDPARNFACDYSAVPAEIWARTQLLYVCSPGNPTGAVLTLDDWRELFALSDRYGFVIASDECYSEIYFDEAKPPLGGLEAAHKLGRGFERLVMLSSLSKRSNVPGMRSGFVAGDAAILKDFLLYRTYHGAALSTVFQNASIAAWNDEAHVRENRAKYLQKFSTVTPMLAEVLDVRLPDAAFYLWADVSRTGLTDTVFAQRLYADYNVTVLPGSFLARTAHGVNPGRNFVRMALVADVDECTQGAQRIVDFCRALAG	not failed
VPSLATAIGSSGDRPAALAELIGIIQNDGIRLPPVRIDSLHFAADTPYDTELIINPELGQRVLPSEVATAMREALSQVVDGGTAKRVQGTFKMQDGSVLAMGGKTGTGDNRIESIGAGGRILSSRAINRTATFVFYIGDNHFGALTAFVPGRAAEGFRFTSALPVQVLKGMAPILTPYLENHGQAMCNAPLADPPTGA	failed
VRGFLIVGNKAFTQPFSLNDLPGAGRMDVLCRCTSQALFISHGIRRDVEVYLLLLGPPSPPKSILIKGDEVRRMSPDERNVAGHIKKALAVECGKSWKKVHSGVYVSRKGLEELIEELSEKYSIIYLKEDGVDISNAQLPPNPLFVIGDHEGLTEEQEKVVERYAALKLSLSPLSLLAEQCVVIAHHHLDRLQF	not failed
VRIVLVGSGNLATQTALALSEAASPPVQVWSRNAEHAERLASMLPGATATDRTEELLCDAELYLLAVSDHALESVAATLPPTSGIWAHTAGSMPMDTLRPYHAQIGVFYPLQTFSRERRVDYSSIPIYIEGNDESVVRLLESVARLISRNVLRCT	failed
VRTLWISDVHLGTRDCQAEHLSAFLKRYQADKVYLVGDIIDGWKLRGGMYWPQAHTNVIRRLLTMSKRGTEVIYVTGNHDEFLRRYSKLILGNIQLVDEAEHVTADGRRFLVIHGDQFDVITRYHRWLAFLGDSAYEFTLTLNRWLNHWRAKYGYGYWSLSAYLKHKVKSAVNFISDFEEAIAHECVKRGLDGVVCGHIHHAEIRQVGGVEYLNCGDWVESCTALIEHLDGNIELFRLA	failed
VSEEEIRMLVAESHEAGVIDAHERDMMNRVMRLGDRTADSLMTPRNRIAWLDANAEPERNLHVMREHEFSRYPVYRGSDQDIAGVLEVKSLVTRMDGHGAQLFQNLRDTLFVSESTHAMKLLEIFREEQQSMALVVDEYGEIRGLVTISDLMGAVVGRLQSVENTDD	failed
VTSDNAAFEGTFKEMFRRHAAGVAIITVNYNGTPYGFTATSVASLSAQPPRFTFNMARSSSSWPAIANTTHIGVHMLGLDNQELADRFARTKNRFEGDHWELGPYEVPILKDVAGWLIGKIQMRLSFENNAVVVVEVVEGQVGEDGTPLLYHSGAYSQPVPLDYEI	not failed
VWAHYEEQPVEEVMPVLEEKERSASYKPVFVTEITDDLHFYVQDVETGTQLEKLMENMRNDIASHPPVEGSYAPRRGEFCIAKFVDGEWYRARVEKVESPAKIHVFYIDYGNREVLPSTRLGTLSPAFSTRVLPAQATEYAFAFIQVPQDDDARTDAVDSVVRDIQNTQCLLNVEHLSAGCPHVTLQFADSKGDVGLGLVKEGLVMVEVRKEKQFQKVITEYLNAQESAKSARLNLWRYGDFRADDADEFGYSR	failed
VWEFYMPTDVFFGEKILEKRGNIIDLLGKRALVVTGKSSSKKNGSLDDLKKLLDETEISYEIFDEVEENPSFDNVMKAVERYRNDSFDFVVGLGGGSPMDFAKAVAVLLKEKDLSVEDLYDREKVKHWLPVVEIPTTAGTGSEVTPYSILTDPEGNKRGCTLMFPVYAFLDPRYTYSMSDELTLSTGVDALSHAVEGYLSRKSTPPSDALAIEAMKIIHRNLPKAIEGNREARKKMFVASCLAGMVIAQTGTTLAHALGYPLTTEKGIKHGKATGMVLPFVMEVMKEEIPEKVDTVNHIFGGSLLKFLKELGLYEKVAVSSEELEKWVEKGSRAKHLKNTPGTFTPEKIRNIYREALGV	not failed
VYGSEVESKIIEFTIVGADEIIAEKLGISVGDFVYKIIRLRIIHSIPTIMEHTWMPIAVIPGVEASVLEESIYSYIQNKLGLKVGTSVVRVKGIRPDDKEKQFMNLTNQDFLMRVEQVAYLTDGRTFEYSYADHLPETFEFETVITAKSYKEA	not failed
WMVQDSVGSGAALASLEGEETGRLWLAAQPEHGFQTLQGLAYALAREVRRLQPDSPYRLAGKGVLGALAYEVGLQLRGMGQTVACVALEGAPAWVRQSEALAVERSQASLPAWLRRCLSSYVPEPGDFPLQPTNMPASAEAFWRALG	failed
WQWDLATNKFIYSDNQHRLLGVERDSFESSNDAFINFVHPEDRHVIKNGERMVLDEQQSSVAFFRVIRKDGQMRYFKSIGKLLTDSSGNKILIGINNDITEEH	failed
WRQRDEAEFTGVDDIPVRFVRFRAQHHDRVVVICPGRIESYVKYAELAYDLFHLGFDVLIIDHRGQGRSGRLLADPHLGHVNRFNDYVDDLAAFWQQEVQPGPWRKRYILAHSMGGAISTLFLQRHPGVCDAIALTAPMFGIVIRMPSFMARQILNWAEAHPRFRDGYAIGTGRWRALPFAINVLTHSRQRYRRNLRFYADDPTIRVGGPTYHWVRESILAGEQVLAGAGDDATPTLLLQAEEERVVDNRMHDRFCELRTAAGHPVEGGRPLVIKGAYHEILFEKDAMRSVALHAIVDFFNRHN	failed
WWNWKGHEVHLDCFRNEKAPVKVILLHGVGTNGRQMSMILGGPLSKDGFETIAIDMPTYGVTKVKKGSVVKYDDWVDLACDYIDYEQQRDDRPIVLYGLSAGGMETYHVAAKNKKVKGIIGMTFLDQKNQQVRDETAKNLVMSRVGIPMAGIACNIGLENFKMKMSTASKMSALCNNEKVMEIFNRDKTSAANKASMRFLDSYGNYQPAMEPEDFDVCPILLTQPEQDKWTPLHLSTPFLNKIKKVDVKIVMLENGGHYPVEQPALDQMHDAIVEFIYKVTK	failed
XRKPILAALTLAGLGLAQEFITIGSGSTTGVYFPVATGIAKLVNDANVGIRANARSTGGSVANINAINAGEFEXALAQNDIAYYAYQGCCIPAFEGKPVKTIRALAALYPEVVHVVARKDAGIRTVADLKGKRVVVGDVGSGTEQNARQILEAYGLTFDDLGQAIRVSASQGIQLXQDKRADALFYTVGLGASAIQQLALTTPIALVAVDLNRIQAIAKKYPFYVGFNIPGGTYKGVDVTTPTVAVQAXLIASERLSEETVYKFXKAVFGNLEAFKKIHPNLERFFGLEKAVKGLPIPLHPGAERFYKEAGVLK	not failed
YIGLVNSFAQKKKLSVNYEQCEPNSELPQRFICKCKIGQTMYGTGSGVTKQEAKQLAAKEAYQKLLKSPPKTAGT	not failed
YPLRKTQAVQSTQFDSRHSFVTKLKPYADKAARMLGVDSSLLIAQAALETGWGQKMVKNARGNSNNLFNIKADRSWQGDKVATQTLEYHNNVPVVEKAAFRSYASFDESFNDYVRFLENNPRYTNALDHGGNSERFIHGIHRAGYATDPQYADKVLRVKAQIDQMNL	failed
YRQSQSRAARLRLLVDTGQELIQLPPEAMRKCVLQRACAFVAMDHGLLLEWGADNGVQTTARHGSKERLSTLETTADPLAIGPQWLERPGTHLPCVLLLPLRGADEGSFGTLVLANSVAISAPDGEDIESLQLLATLLAAHLENNRLLEALVARDRT	not failed
YWGPLDVGEAKSLPGMEDPKLVYIPSIAPSNMVLYRGDKYSELDGKILVGALKLTHINVVGINDGKLTESQRLLEKLGERIRDITISPDGYIYFSTDSGKIFRLTEQ	failed
YYNPVRYPERTKERRDLVLRLLMQQNMLTSQQYEQAVSRPLDTQSKPRIASRQPAYFQQLNIELKEKVGDRFKAETGL	failed
